B1: Auxin-responsive protein IAA1 (Arabidopsis thaliana (Mouse-ear cress)), P49677 (parent)
chain: MEVTNGLNLKDTELRLGLPGAQEEQQLELSCVRSNNKRKNNDSTEESAPPPAKTQIVGWPPVRSNRKNNNNKNVSYVKVSMDGAPYLRKIDLKMYKNYPELLKALENMFKFTVGEYSEREGYKGSGFVPTYEDKDGDWMLVGDVPWDMFSSSCQKLRIMKGSEAPTAL
partner: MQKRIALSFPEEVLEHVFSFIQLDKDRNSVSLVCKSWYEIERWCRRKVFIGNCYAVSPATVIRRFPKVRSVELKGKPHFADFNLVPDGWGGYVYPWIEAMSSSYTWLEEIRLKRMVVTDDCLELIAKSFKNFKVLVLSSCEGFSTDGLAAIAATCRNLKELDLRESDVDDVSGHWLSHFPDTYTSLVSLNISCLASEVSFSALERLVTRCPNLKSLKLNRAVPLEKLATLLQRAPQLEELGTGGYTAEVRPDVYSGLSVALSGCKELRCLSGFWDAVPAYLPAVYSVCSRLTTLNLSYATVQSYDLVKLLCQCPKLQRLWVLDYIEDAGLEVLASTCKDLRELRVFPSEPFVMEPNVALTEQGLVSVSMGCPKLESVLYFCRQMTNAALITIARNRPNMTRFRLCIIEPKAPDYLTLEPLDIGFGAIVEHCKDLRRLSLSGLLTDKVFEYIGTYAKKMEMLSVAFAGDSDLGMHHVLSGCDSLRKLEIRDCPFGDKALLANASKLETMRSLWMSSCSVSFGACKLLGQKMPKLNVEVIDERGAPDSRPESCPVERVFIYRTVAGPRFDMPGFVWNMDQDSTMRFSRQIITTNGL

Variants of: B1
Conditions: with tir1_arath TIR1, Q570C0

| effect of a mutation on the interaction | Variant |
| --- | --- |
| decreasing interaction | P61S |
